Measurements published in patent US20120121587A1 (Chugai, published 2012).

T1: Human recombinant AXL-FND1 (GST-FND1), from pET-41b(+) (human, UniProt P30530 225-331)
T1 construct: Expressed in E. coli, purified on Glutathione Sepharose; analyte in all Biacore measurements; GST put first by the usual layout of pET-41; not shown: GST-tag of vector pET-41b(+) (Novagen)
T1 sequence (looked up): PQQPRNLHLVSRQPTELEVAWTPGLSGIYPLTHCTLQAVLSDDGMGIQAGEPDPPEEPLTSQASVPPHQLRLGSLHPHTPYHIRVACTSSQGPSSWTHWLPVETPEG

B1: H20/L0 (antibody, human IgG1, kappa, V domains shown)
VH: QVTLKESGPVLVKPTETLTLTCTVSGFSLSSFGVDWVRQPPGEGLEWIGVIWGGGSTNYNSALKSRLTISKDNSKSQVVLTMTNMDPVDTATYYCAGEGSKYGAWFAYWGQGTLVTVSS
VL: DVVMTQSPLSLPVTLGQPASISCRSSQNIVHTNGNTYLEWYQQKPGKAPELLIYKVSNRFSGVPDRFSGSGSGTDFTLKISRVEAEDVGVYYCFQGSHIPFTFGQGTKLEIKR
B2: H21/L0 (antibody, human IgG1, kappa, V domains shown)
VH: QVTLKESGPVLVKPTETLTLTCTVSGFSLSSFGVDWVRQAPGKGLEWMGVIWGGGSTNYNEALKSRLTISKDNSKSQVVLTMTNMDPVDTATYYCAGEGSKYGAWFAYWGQGTLVTVSS
VL: DVVMTQSPLSLPVTLGQPASISCRSSQNIVHTNGNTYLEWYQQKPGKAPELLIYKVSNRFSGVPDRFSGSGSGTDFTLKISRVEAEDVGVYYCFQGSHIPFTFGQGTKLEIKR
B3: H22/L0 (antibody, human IgG1, kappa, V domains shown)
VH: QVTLKESGPVLVKPTETLTLTCTVSGFSLSSFGVDWVRQAPGKGLEWMGVIWGGGSTNYNSELKSRLTISKDNSKSQVVLTMTNMDPVDTATYYCAGEGSKYGAWFAYWGQGTLVTVSS
VL: DVVMTQSPLSLPVTLGQPASISCRSSQNIVHTNGNTYLEWYQQKPGKAPELLIYKVSNRFSGVPDRFSGSGSGTDFTLKISRVEAEDVGVYYCFQGSHIPFTFGQGTKLEIKR
B4: H23/L0 (antibody, human IgG1, kappa, V domains shown)
VH: QVTLKESGPVLVKPTETLTLTCTVSGFSLSSFGVDWVRQAPGKGLEWMGVIWGGGSTNYNSALQSRLTISKDNSKSQVVLTMTNMDPVDTATYYCAGEGSKYGAWFAYWGQGTLVTVSS
VL: DVVMTQSPLSLPVTLGQPASISCRSSQNIVHTNGNTYLEWYQQKPGKAPELLIYKVSNRFSGVPDRFSGSGSGTDFTLKISRVEAEDVGVYYCFQGSHIPFTFGQGTKLEIKR
B5: H24/L0 (antibody, human IgG1, kappa, V domains shown)
VH: QVTLKESGPVLVKPTETLTLTCTVSGFSLSSFGVDWVRQAPGKGLEWMGVIWGGGSTNYNSALKDRLTISKDNSKSQVVLTMTNMDPVDTATYYCAGEGSKYGAWFAYWGQGTLVTVSS
VL: DVVMTQSPLSLPVTLGQPASISCRSSQNIVHTNGNTYLEWYQQKPGKAPELLIYKVSNRFSGVPDRFSGSGSGTDFTLKISRVEAEDVGVYYCFQGSHIPFTFGQGTKLEIKR
B6: H25/L0 (antibody, human IgG1, kappa, V domains shown)
VH: QVTLKESGPVLVKPTETLTLTCTVSGFSLSSFGVDWVRQAPGKGLEWMGVIWGGGSTNYNSALQDRLTISKDNSKSQVVLTMTNMDPVDTATYYCAGEGSKYGAWFAYWGQGTLVTVSS
VL: DVVMTQSPLSLPVTLGQPASISCRSSQNIVHTNGNTYLEWYQQKPGKAPELLIYKVSNRFSGVPDRFSGSGSGTDFTLKISRVEAEDVGVYYCFQGSHIPFTFGQGTKLEIKR
B7: H26/L0 (antibody, human IgG1, kappa)
heavy: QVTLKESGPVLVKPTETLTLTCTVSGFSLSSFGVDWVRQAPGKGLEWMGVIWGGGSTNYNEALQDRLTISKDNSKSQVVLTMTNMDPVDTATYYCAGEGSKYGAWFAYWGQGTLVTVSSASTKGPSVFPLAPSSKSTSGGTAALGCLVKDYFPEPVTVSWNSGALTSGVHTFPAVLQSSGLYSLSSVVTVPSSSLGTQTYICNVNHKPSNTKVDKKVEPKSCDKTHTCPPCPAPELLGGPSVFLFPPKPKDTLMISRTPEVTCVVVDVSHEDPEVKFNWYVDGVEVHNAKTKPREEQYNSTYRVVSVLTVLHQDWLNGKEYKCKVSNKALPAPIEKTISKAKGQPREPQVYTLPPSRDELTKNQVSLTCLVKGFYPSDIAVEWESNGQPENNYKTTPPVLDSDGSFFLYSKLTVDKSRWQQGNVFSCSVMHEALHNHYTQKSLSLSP
light: DVVMTQSPLSLPVTLGQPASISCRSSQNIVHTNGNTYLEWYQQKPGKAPELLIYKVSNRFSGVPDRFSGSGSGTDFTLKISRVEAEDVGVYYCFQGSHIPFTFGQGTKLEIKRTVAAPSVFIFPPSDEQLKSGTASVVCLLNNFYPREAKVQWKVDNALQSGNSQESVTEQDSKDSTYSLSSTLTLSKADYEKHKVYACEVTHQGLSSPVTKSFNRGEC
B8: H26/L10 (antibody, human IgG1, kappa)
heavy: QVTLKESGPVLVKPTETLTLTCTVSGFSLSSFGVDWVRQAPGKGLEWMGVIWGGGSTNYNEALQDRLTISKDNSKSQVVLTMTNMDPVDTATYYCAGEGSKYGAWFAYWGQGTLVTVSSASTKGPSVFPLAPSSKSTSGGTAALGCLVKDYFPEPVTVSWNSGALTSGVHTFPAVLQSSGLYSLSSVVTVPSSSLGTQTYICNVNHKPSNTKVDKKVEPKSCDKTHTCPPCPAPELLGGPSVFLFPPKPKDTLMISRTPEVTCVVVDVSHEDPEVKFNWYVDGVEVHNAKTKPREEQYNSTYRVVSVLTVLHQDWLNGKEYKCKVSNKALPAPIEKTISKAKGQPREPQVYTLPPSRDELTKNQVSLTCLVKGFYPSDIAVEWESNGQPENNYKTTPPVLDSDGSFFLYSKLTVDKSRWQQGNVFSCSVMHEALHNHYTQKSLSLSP
light: DVVMTQSPLSLPVTLGQPASISCRSSQNIVHTNGNTYLEWYQQKPGKAPELLIYKVSNRFSGVPDRFSGSGSGTDFTLKISRVEAEDVGVYYCFQGSHIPFTFGQGTKVEIERTVAAPSVFIFPPSDEQLKSGTASVVCLLNNFYPREAKVQWKVDNALQSGNSQESVTEQDSKDSTYSLSSTLTLSKADYEKHKVYACEVTHQGLSSPVTKSFNRGEC
B9: H26/L11 (antibody, human IgG1, kappa)
heavy: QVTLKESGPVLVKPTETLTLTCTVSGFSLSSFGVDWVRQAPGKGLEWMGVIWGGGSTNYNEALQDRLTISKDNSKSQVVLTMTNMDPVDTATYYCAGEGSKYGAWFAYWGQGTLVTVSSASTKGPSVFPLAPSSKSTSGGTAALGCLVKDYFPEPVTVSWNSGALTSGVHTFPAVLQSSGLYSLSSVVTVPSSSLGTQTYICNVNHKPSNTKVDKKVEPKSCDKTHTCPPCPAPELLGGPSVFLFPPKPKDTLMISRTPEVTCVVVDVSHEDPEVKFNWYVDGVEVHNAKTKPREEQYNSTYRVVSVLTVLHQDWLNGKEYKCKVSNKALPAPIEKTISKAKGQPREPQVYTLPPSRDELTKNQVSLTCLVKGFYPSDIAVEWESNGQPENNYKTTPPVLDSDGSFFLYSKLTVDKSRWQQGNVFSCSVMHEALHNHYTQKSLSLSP
light: DVVMTQSPLSLPVTLGQPASISCQSSQNIVHTNGNTYLEWYQQKPGKAPELLIYKVSNRFSGVPDRFSGSGSGTDFTLKISRVEAEDVGVYYCFQGSHIPFTFGQGTKVEIERTVAAPSVFIFPPSDEQLKSGTASVVCLLNNFYPREAKVQWKVDNALQSGNSQESVTEQDSKDSTYSLSSTLTLSKADYEKHKVYACEVTHQGLSSPVTKSFNRGEC
B10: H26/L12 (antibody, human IgG1, kappa)
heavy: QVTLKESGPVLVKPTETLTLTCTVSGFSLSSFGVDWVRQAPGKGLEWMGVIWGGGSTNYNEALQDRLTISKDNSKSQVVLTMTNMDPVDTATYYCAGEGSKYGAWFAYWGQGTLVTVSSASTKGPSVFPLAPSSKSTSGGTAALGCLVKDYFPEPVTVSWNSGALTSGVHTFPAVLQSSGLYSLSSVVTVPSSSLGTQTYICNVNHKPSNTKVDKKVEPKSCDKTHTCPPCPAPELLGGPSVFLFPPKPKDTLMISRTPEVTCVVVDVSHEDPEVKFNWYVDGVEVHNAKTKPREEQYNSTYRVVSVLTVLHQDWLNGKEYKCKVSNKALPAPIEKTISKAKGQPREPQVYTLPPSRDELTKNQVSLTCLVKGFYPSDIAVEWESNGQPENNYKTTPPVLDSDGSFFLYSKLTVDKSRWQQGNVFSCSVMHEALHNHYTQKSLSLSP
light: DVVMTQSPLSLPVTLGQPASISCQSSQNIVHTNGNTYLEWYQQKPGEAPELLIYKVSNRFSGVPDRFSGSGSGTDFTLKISRVEAEDVGVYYCFQGSHIPFTFGQGTKVEIERTVAAPSVFIFPPSDEQLKSGTASVVCLLNNFYPREAKVQWKVDNALQSGNSQESVTEQDSKDSTYSLSSTLTLSKADYEKHKVYACEVTHQGLSSPVTKSFNRGEC
B11: H26/L13 (antibody, human IgG1, kappa)
heavy: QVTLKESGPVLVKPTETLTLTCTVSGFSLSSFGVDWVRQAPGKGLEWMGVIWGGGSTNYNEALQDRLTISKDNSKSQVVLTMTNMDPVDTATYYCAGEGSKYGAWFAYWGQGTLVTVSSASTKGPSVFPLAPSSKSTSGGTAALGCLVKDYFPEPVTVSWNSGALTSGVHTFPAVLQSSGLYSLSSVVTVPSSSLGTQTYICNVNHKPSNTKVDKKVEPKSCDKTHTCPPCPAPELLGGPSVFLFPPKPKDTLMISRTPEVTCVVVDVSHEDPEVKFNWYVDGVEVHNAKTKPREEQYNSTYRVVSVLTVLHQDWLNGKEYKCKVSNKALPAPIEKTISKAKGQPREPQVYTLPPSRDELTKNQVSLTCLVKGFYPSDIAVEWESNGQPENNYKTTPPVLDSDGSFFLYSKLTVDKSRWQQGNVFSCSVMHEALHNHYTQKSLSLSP
light: DVVMTQSPLSLPVTLGQPASISCQSSQNIVHTNGNTYLEWYQQKPGQAPELLIYKVSNRFSGVPDRFSGSGSGTDFTLKISRVEAEDVGVYYCFQGSHIPFTFGQGTKVEIERTVAAPSVFIFPPSDEQLKSGTASVVCLLNNFYPREAKVQWKVDNALQSGNSQESVTEQDSKDSTYSLSSTLTLSKADYEKHKVYACEVTHQGLSSPVTKSFNRGEC
B12: H27/L0 (antibody, human IgG1, kappa, V domains shown)
VH: QVTLKESGPVLVKPTETLTLTCTVSGFSLSSFGVDWVRQAPGKGLEWMGVIWGGGSTNYNSELQDRLTISKDNSKSQVVLTMTNMDPVDTATYYCAGEGSKYGAWFAYWGQGTLVTVSS
VL: DVVMTQSPLSLPVTLGQPASISCRSSQNIVHTNGNTYLEWYQQKPGKAPELLIYKVSNRFSGVPDRFSGSGSGTDFTLKISRVEAEDVGVYYCFQGSHIPFTFGQGTKLEIKR
B13: H28/L0 (antibody, human IgG1, kappa, V domains shown)
VH: QVTLKESGPVLVKPTETLTLTCTVSGFSLSSFGVDWVRQAPGKGLEWMGVIWGGGSTNYNEELQDRLTISKDNSKSQVVLTMTNMDPVDTATYYCAGEGSKYGAWFAYWGQGTLVTVSS
VL: DVVMTQSPLSLPVTLGQPASISCRSSQNIVHTNGNTYLEWYQQKPGKAPELLIYKVSNRFSGVPDRFSGSGSGTDFTLKISRVEAEDVGVYYCFQGSHIPFTFGQGTKLEIKR
B14: H30/L0 (antibody, human IgG1, kappa)
heavy: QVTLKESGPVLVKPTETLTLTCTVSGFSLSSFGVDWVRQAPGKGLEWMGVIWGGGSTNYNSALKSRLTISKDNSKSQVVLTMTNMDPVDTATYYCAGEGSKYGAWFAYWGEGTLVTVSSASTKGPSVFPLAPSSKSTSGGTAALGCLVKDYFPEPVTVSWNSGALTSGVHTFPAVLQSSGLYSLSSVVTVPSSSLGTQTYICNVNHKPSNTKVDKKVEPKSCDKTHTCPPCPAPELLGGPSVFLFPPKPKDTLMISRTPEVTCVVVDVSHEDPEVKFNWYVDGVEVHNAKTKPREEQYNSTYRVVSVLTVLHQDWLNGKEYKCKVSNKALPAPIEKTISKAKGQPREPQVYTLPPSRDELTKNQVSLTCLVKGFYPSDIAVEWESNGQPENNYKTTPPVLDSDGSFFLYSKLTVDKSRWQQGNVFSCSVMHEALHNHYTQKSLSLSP
light: DVVMTQSPLSLPVTLGQPASISCRSSQNIVHTNGNTYLEWYQQKPGKAPELLIYKVSNRFSGVPDRFSGSGSGTDFTLKISRVEAEDVGVYYCFQGSHIPFTFGQGTKLEIKRTVAAPSVFIFPPSDEQLKSGTASVVCLLNNFYPREAKVQWKVDNALQSGNSQESVTEQDSKDSTYSLSSTLTLSKADYEKHKVYACEVTHQGLSSPVTKSFNRGEC
B15: H31/L0 (antibody, human IgG1, kappa)
heavy: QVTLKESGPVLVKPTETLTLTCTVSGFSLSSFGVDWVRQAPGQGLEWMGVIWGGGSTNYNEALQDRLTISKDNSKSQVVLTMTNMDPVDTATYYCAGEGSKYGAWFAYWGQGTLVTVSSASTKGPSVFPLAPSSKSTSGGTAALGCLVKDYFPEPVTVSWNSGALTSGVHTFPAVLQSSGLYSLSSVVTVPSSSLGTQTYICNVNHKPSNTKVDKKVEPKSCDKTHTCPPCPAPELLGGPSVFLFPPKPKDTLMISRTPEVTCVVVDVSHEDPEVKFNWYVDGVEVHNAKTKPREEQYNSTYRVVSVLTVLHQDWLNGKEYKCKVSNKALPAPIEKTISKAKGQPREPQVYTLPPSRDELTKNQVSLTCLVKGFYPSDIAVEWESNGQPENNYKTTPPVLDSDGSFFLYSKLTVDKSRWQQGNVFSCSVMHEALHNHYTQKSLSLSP
light: DVVMTQSPLSLPVTLGQPASISCRSSQNIVHTNGNTYLEWYQQKPGKAPELLIYKVSNRFSGVPDRFSGSGSGTDFTLKISRVEAEDVGVYYCFQGSHIPFTFGQGTKLEIKRTVAAPSVFIFPPSDEQLKSGTASVVCLLNNFYPREAKVQWKVDNALQSGNSQESVTEQDSKDSTYSLSSTLTLSKADYEKHKVYACEVTHQGLSSPVTKSFNRGEC
B16: H31/L10 (antibody, human IgG1, kappa)
heavy: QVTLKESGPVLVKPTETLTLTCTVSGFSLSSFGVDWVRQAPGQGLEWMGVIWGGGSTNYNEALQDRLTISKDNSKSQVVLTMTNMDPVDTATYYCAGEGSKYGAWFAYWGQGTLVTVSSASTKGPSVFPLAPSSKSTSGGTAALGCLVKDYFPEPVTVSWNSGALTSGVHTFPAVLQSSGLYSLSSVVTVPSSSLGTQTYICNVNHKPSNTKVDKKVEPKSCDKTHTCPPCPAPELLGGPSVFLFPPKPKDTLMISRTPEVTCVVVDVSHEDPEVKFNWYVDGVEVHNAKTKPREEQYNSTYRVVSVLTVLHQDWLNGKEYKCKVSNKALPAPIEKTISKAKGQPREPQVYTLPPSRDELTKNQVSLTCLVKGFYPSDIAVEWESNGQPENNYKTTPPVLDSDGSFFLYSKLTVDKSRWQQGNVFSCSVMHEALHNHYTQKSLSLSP
light: DVVMTQSPLSLPVTLGQPASISCRSSQNIVHTNGNTYLEWYQQKPGKAPELLIYKVSNRFSGVPDRFSGSGSGTDFTLKISRVEAEDVGVYYCFQGSHIPFTFGQGTKVEIERTVAAPSVFIFPPSDEQLKSGTASVVCLLNNFYPREAKVQWKVDNALQSGNSQESVTEQDSKDSTYSLSSTLTLSKADYEKHKVYACEVTHQGLSSPVTKSFNRGEC
B17: H31/L11 (antibody, human IgG1, kappa)
heavy: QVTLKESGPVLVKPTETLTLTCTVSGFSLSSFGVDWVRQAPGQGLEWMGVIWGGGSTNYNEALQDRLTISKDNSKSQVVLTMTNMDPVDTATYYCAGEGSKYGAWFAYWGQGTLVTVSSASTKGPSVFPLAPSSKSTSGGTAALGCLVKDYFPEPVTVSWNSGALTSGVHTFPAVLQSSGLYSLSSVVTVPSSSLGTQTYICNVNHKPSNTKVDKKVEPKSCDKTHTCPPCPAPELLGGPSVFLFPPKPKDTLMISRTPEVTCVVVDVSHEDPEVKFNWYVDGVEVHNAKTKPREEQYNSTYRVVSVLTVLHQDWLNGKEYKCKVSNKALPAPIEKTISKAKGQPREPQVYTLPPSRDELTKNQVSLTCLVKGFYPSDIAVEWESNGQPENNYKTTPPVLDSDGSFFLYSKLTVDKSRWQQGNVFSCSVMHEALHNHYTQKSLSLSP
light: DVVMTQSPLSLPVTLGQPASISCQSSQNIVHTNGNTYLEWYQQKPGKAPELLIYKVSNRFSGVPDRFSGSGSGTDFTLKISRVEAEDVGVYYCFQGSHIPFTFGQGTKVEIERTVAAPSVFIFPPSDEQLKSGTASVVCLLNNFYPREAKVQWKVDNALQSGNSQESVTEQDSKDSTYSLSSTLTLSKADYEKHKVYACEVTHQGLSSPVTKSFNRGEC
B18: H31/L12 (antibody, human IgG1, kappa)
heavy: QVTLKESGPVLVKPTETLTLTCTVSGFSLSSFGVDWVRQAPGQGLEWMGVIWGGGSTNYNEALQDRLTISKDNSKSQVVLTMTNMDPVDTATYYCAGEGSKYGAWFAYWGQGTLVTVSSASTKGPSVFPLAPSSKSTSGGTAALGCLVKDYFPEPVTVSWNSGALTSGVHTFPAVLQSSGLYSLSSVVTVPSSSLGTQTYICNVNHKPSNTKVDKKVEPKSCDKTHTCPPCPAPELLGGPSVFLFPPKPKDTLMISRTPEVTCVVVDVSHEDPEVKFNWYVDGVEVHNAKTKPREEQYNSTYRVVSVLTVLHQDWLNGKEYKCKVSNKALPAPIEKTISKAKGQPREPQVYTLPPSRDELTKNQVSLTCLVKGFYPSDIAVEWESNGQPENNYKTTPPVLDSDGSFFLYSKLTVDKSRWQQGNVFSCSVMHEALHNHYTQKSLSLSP
light: DVVMTQSPLSLPVTLGQPASISCQSSQNIVHTNGNTYLEWYQQKPGEAPELLIYKVSNRFSGVPDRFSGSGSGTDFTLKISRVEAEDVGVYYCFQGSHIPFTFGQGTKVEIERTVAAPSVFIFPPSDEQLKSGTASVVCLLNNFYPREAKVQWKVDNALQSGNSQESVTEQDSKDSTYSLSSTLTLSKADYEKHKVYACEVTHQGLSSPVTKSFNRGEC
B19: H32/L0 (antibody, human IgG1, kappa)
heavy: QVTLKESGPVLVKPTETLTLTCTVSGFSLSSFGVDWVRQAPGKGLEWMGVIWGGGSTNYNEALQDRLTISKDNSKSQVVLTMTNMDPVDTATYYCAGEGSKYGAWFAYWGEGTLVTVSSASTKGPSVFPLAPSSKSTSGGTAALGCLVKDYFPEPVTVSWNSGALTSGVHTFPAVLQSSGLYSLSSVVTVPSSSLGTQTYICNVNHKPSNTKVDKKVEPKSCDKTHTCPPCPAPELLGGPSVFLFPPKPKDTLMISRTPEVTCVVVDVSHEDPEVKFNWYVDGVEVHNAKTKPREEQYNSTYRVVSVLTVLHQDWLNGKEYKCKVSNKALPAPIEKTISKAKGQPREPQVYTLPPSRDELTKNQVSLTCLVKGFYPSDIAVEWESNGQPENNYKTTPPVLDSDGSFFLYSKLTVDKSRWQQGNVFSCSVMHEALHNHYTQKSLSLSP
light: DVVMTQSPLSLPVTLGQPASISCRSSQNIVHTNGNTYLEWYQQKPGKAPELLIYKVSNRFSGVPDRFSGSGSGTDFTLKISRVEAEDVGVYYCFQGSHIPFTFGQGTKLEIKRTVAAPSVFIFPPSDEQLKSGTASVVCLLNNFYPREAKVQWKVDNALQSGNSQESVTEQDSKDSTYSLSSTLTLSKADYEKHKVYACEVTHQGLSSPVTKSFNRGEC

Target: T1, Human recombinant AXL-FND1 (GST-FND1), …
Test: SPR (Biacore T100): antibody captured on Protein A, GST-FND1 as analyte
Protocol: Kinetic analyses of antigen-antibody reactions of humanized AXL antibodies were carried out using Biacore T100 (BIACORE). rec-Protein A (Zymed) (hereinafter, Protein A) was immobilized onto a sensor chip, various antibodies were bound to it, then an antigen as the analyte was flushed to measure the antibody-antigen interaction. Human recombinant AXL-FND1 (prepared in 2-2; hereinafter referred to as GST-FND1) prepared at various concentrations was used as the antigen. From the sensorgrams obtained through the measurements, kinetic parameters, namely binding rate constant kₐ (1/Ms) and dissociation rate constant kd (1/s), were calculated, and Kd (M) was calculated based on these values. Biacore T100 Evaluation Software (BIACORE) was used to calculate each of the parameters.
The sensor chips were produced by immobilizing approximately 3000 RU of Protein A onto CM5 (BIACORE) by amine coupling. Using the produced sensor chip, kinetic analyses were carried out on the interaction between the Protein A-bound antibodies and GST-FND1. HBS-EP+ was used as the running buffer, and the flow rate was set to 30 μL/min. Each antibody was prepared at 1 μg/mL using the running buffer, and was subjected to binding with Protein A for two minutes. GST-FND1 as the analyte was prepared at 0.5 and 2.0 μg/mL using HBS-EP+. Measurements were carried out by first binding the various humanized AXL antibodies, chimeric AXL antibodies, or mouse AXL antibodies of interest to Protein A, then applying an analyte solution to them for a two-minute interaction, and then switching to HBS-EP+ (BIACORE) for a two-minute measurement of the dissociation phase. After completion of measurement of the dissociation phase, 30 μL of 10 mM glycine-HCl (pH 2.0) was used for washing to regenerate the sensor chip. Such binding, dissociation, and regeneration were defined as one cycle of analysis. All experiments were performed at 25° C.
Affinity evaluation of each of the variants by Biacore was carried out by the method of Example 2.

Binder	Kd [nM]
B1	3.21
B2	2.35
B3	3.14
B4	2.39
B5	2.56
B6	2.5
B7	2.5
B8	2.38
B9	2.71
B10	2.79
B11	2.5
B12	3.03
B13	2.94
B14	2.7
B15	2.54
B16	3.03
B17	3.05
B18	3.14
B19	2.82
